Assay results as given in paper PMC3857192.

Molecular target: PAC-1
Assay: flow cytometry on cells
Conditions: read off a plot
[1] = no treatment (CON), parent: est. 0
[2] = FITC-PAC-1 5 µg/ml, DTT + PT25-2, parent: est. 36
[3] = FITC-PAC-1 5 µg/ml, DTT, parent: est. 13
[4] = FITC-PAC-1 5 µg/ml, mAb PT25-2, parent: est. 26

**Q.** With “normal integrin αIIbβ3 (from UniProt P08514;P05106) αIIb:K321C; αIIb:F992A; αIIb:F993A; β3:R360C” as the substance, how does the response (DTT + PT25-2, parent: est. 36) read?
**A.** Its response is 20 NNFI.

**Q.** What about the response (DTT, parent: est. 12) of the same substance?
**A.** Its response is 13 NNFI.

**Q.** What about the response (mAb PT25-2, parent: est. 26) of the same substance?
**A.** Its response is 9.9 NNFI.

**Q.** And the response [1]?
**A.** The response was 5.5 NNFI.

**Q.** How did the response [2] turn out when “normal integrin αIIbβ3 (from UniProt P08514;P05106) αIIb:K321C; β3:E358C” was run?
**A.** Its response is 38 NNFI.

**Q.** And the response [3]?
**A.** Its response is 19 NNFI.

**Q.** What about the response [4] of the same substance?
**A.** Its response is 6.2 NNFI.

**Q.** What about the response (FITC-PAC-1 5 µg/ml, no treatment (CON), parent: est. 0) of the same substance?
**A.** Its response is 0.7 NNFI.

**Q.** “normal integrin αIIbβ3 (from UniProt P08514;P05106) αIIb:F992A; αIIb:F993A” was tested. Which response (DTT + PT25-2, parent: est. 36) did it give?
**A.** Its response is 37 NNFI.

**Q.** And the response (DTT, parent: est. 12)?
**A.** Its response is 28 NNFI.

**Q.** And the response (mAb PT25-2, parent: est. 26)?
**A.** The response was 34 NNFI.

**Q.** And the response [1]?
**A.** Its response is 24 NNFI.

**Q.** With “normal integrin αIIbβ3 (from UniProt P08514;P05106) αIIb:K321C; αIIb:F992A; αIIb:F993A; β3:E358C” as the substance, how does the response (DTT + PT25-2, parent: est. 36) read?
**A.** The response was 38 NNFI.

**Q.** What about the response (DTT, parent: est. 12) of the same substance?
**A.** The response was 23 NNFI.

**Q.** And the response (mAb PT25-2, parent: est. 26)?
**A.** Its response is 5.5 NNFI.

**Q.** What about the response [1] of the same substance?
**A.** The response was 2.7 NNFI.

**Q.** What does the source list for “normal integrin αIIbβ3 (from UniProt P08514;P05106) αIIb:K321C; β3:R360C”?
**A.** response [2]: 28 NNFI; response [3]: 14 NNFI; response [4]: 9.7 NNFI
